Data published in US20160298117, “PEANUT-BINDING NUCLEIC ACID MOLECULE AND USE THEREOF” (NEC Solution Innovators, Ltd., published 2016).

Legend:
[1] = molecular target: T1, beta-conglycinin (undenatured) (Glycine max, UniProt P0DO16;P11827;P25974 P0DO16:63-605,P11827:63-621,P25974:24-439); assay: SPR; little binding; settings: tags: Sigma C5868-5GM
Experimental: (§1) First, as a sensor chip designed specifically for the ProteON, a streptavidin-immobilized chip (trade name: ProteOn NLC Sensor Chip, BioRad) was set in the ProteON XPR36. Biotinylated poly(dT) at 5 μmol/L was injected to a flow cell of the sensor chip using ultrapure water (DDW), and the binding was allowed to proceed until the signal intensity (RU: Resonance Unit) reached about 900 RU. The biotinylated poly(dT) was prepared by biotinylating the 5′ end of 24-mer deoxythymidine. Then, the poly(dA)-added aptamer at 1 μmol/L was injected to the flow cell of the chip using an SPR buffer at a flow rate of 25 μL/min for 80 seconds, and the binding was allowed to proceed until the signal intensity reached about 800 RU. […] Subsequently, the sample was injected using the SPR buffer at a flow rate of 50 μL/min for 120 seconds, followed by washing performed by flowing the SPR buffer under the same conditions. Signal intensity measurement was performed concurrently with the injection of the sample and the washing with the SPR buffer.
(§2) Except that the following eight types of aptamers were used as pyrimidine-rich aptamers, the binding forces to Ara h1, heat-denatured peanut proteins, undenatured β-conglycinin, and heat-denatured soybean proteins were examined by SPR in the same manner as in the above-described examples.

[2] = molecular target: T2, Ara h1 (heat-denatured, purified from parboiled peanut) (Arachis hypogaea, UniProt P43238 P43238:26-626); assay: SPR; very high binding; settings: tags: INDOOR biotechnologies NA-AH1-1
T2 sequence: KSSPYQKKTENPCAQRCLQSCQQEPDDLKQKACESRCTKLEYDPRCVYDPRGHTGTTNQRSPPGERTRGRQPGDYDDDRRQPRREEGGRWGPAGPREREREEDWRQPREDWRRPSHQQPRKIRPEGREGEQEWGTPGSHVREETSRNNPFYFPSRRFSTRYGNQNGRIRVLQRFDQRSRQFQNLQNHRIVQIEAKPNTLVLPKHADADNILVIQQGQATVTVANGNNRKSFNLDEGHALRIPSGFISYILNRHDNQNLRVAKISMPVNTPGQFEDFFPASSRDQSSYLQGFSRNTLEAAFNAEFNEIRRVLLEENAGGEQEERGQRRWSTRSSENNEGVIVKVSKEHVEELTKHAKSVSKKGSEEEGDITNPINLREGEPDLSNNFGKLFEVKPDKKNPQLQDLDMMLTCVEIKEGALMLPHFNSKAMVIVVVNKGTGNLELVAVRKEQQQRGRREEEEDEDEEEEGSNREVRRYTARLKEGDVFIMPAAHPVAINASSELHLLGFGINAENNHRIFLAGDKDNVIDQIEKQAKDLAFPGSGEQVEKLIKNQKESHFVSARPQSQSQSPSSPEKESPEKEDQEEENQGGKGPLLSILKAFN
Experimental: as §1, §2

[3] = molecular target: T1, beta-conglycinin (undenatured); assay: SPR; little binding, 18.75-300 nM; settings: tags: Sigma C5868-5GM
Experimental: as §1
(§3) The concentrations of the β-conglycinin were set to 18.75, 37.5, 75, 150, and 300 nmol/L, and the protein concentrations in the soybean samples were set to 1, 3, 10, 30, and 100 ppm. The SPR analysis was performed in the same manner as in Example 1, except that these samples were used. Then, from the results of the above-described SPR analysis, the relative binding value was determined regarding the proteins in each peanut sample bound to the aptamer immobilized on the chip. The relative binding value was calculated as the ratio of the protein binding measured value to the aptamer immobilization measured value (the protein binding measured value/the aptamer immobilization measured value).

conarachin (undenatured) [4] = molecular target: T3, conarachin (undenatured) (Arachis hypogaea, UniProt P43238 P43238:26-626); assay: SPR; 40 mM HEPES pH 7.5, 125 mM NaCl, 5 mM KCl, 1 mM MgCl2, 0.05% Tween 20; settings: tags: COSMO BIO CSB-CSB-NP003601PL
T3 sequence: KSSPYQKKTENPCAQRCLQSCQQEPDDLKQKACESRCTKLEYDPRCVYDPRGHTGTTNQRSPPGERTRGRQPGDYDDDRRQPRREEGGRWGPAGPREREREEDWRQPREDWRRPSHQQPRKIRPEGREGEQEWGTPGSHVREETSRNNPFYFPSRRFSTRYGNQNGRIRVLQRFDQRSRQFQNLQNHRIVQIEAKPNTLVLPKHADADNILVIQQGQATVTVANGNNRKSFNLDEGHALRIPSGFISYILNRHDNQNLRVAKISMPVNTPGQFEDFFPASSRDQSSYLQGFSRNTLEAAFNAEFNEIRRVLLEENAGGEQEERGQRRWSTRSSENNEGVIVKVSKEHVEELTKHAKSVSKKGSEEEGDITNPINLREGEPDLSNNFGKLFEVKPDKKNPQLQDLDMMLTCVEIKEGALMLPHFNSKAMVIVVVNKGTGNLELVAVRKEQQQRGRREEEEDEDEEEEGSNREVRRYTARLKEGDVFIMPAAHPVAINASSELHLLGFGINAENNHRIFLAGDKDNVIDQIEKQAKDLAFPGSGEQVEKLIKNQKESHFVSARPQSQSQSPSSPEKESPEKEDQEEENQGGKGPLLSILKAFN
Experimental: (§4) First, as a sensor chip designed specifically for the ProteON, a streptavidin-immobilized chip (trade name: ProteOn NLC Sensor Chip, BioRad) was set in the ProteON XPR36. Biotinylated poly(dT) at 5 μmol/L was injected to a flow cell of the sensor chip using ultrapure water (DDW), and the binding was allowed to proceed until the signal intensity (RU: Resonance Unit) reached about 900 RU. The biotinylated poly(dT) was prepared by biotinylating the 5′ end of 24-mer deoxythymidine. Then, the poly(dA)-added aptamer at 1 μmol/L was injected to the flow cell of the chip using an SPR buffer at a flow rate of 25 μL/min for 80 seconds, and the binding was allowed to proceed until the signal intensity reached about 800 RU. […]
(§5) Samples were prepared by adjusting commercially available peanut allergen conarachin (COSMO BIO, CSB-CSB-NP003601PL, Arachis hypogaea seed, Native) to 50 nmol/L, 25 nmol/L, 12.5 nmol/L, 6.25 nmol/L, and 3.125 nmol/L. The conarachin is a undenatured protein, and the conarachin generally accounts for about 17% of the total amount of peanut proteins in a peanut. The SPR analysis was carried out in the same manner as in Example 1, and the kinetic parameter was calculated from the results of the analysis.

[5] = molecular target: beta-conglycinin (heat-denatured, boiled 10 min) (Glycine max, UniProt P0DO16;P11827;P25974 P0DO16:63-605,P11827:63-621,P25974:24-439); assay: SPR; little binding, 18.75-300 nM; settings: tags: Sigma C5868-5GM
Experimental: as §1, with “Biotinylated” for “First, as a sensor chip designed specifically for the ProteON, a streptavidin-immobilized chip (trade name: ProteOn NLC Sensor Chip, BioRad) was set in the ProteON XPR36. Biotinylated”
As soybean allergen samples, undenatured β-conglycinin, heat-denatured β-conglycinin, undenatured soybean proteins, and heat-denatured soybean proteins were provided. A commercially available product (Sigma, trade name β-conglycinin from Glycine max (soybean), C5868-5GM) was used as the undenatured β-conglycinin. The heat-denatured β-conglycinin was prepared by boiling the undenatured β-conglycinin for 10 minutes and then collecting a supernatant fraction. As the undenatured soybean proteins and the heat-denatured soybean proteins, the undenatured soybean sample and the heat-denatured soybean sample in Example 1 were used.
as §3, with “chip.” for “chip. The relative binding value was calculated as the ratio of the protein binding measured value to the aptamer immobilization measured value (the protein binding measured value/the aptamer immobilization measured value).”

[6] = molecular target: T2, Ara h1 (heat-denatured, purified from …); assay: SPR; 6.25-100 nM Ara h1; settings: tags: INDOOR biotechnologies NA-AH1-1
Experimental: as §4
(§6) Samples were prepared by adjusting the Ara h1 used in Example 2 to predetermined concentrations (6.25, 12.5, 25, 50, and 100 nmol/L). […] From the results of the above-described SPR analysis, the relative binding value was determined regarding the Ara h1 bound to the aptamer immobilized on the chip. The relative binding value was calculated as the ratio of the protein binding measured value to the aptamer immobilization measured value (the protein binding measured value/the aptamer immobilization measured value).

conarachin (undenatured) [7] = molecular target: T3, conarachin (undenatured); assay: SPR; 10-1000 nM conarachin; settings: tags: COSMO BIO CSB-CSB-NP003601PL
Experimental: as §4
as §6, with “undenatured conarachin” for “Ara h1 used in Example 2”, “(10, 30, 100, 300, and 1000 nmol/L) and the heat-denatured conarachin to predetermined concentrations (3.125, 6.25,” for “(6.25,”, “25,” for “25, 50,”, “50” for “100”, “conarachin” for “Ara h1”

[8] = molecular target: T4, conarachin (heat-denatured, boiled 10 min) (Arachis hypogaea, UniProt P43238 P43238:26-626); assay: SPR; 3.125-50 nM; superior to undenatured; settings: tags: COSMO BIO CSB-CSB-NP003601PL
T4 sequence: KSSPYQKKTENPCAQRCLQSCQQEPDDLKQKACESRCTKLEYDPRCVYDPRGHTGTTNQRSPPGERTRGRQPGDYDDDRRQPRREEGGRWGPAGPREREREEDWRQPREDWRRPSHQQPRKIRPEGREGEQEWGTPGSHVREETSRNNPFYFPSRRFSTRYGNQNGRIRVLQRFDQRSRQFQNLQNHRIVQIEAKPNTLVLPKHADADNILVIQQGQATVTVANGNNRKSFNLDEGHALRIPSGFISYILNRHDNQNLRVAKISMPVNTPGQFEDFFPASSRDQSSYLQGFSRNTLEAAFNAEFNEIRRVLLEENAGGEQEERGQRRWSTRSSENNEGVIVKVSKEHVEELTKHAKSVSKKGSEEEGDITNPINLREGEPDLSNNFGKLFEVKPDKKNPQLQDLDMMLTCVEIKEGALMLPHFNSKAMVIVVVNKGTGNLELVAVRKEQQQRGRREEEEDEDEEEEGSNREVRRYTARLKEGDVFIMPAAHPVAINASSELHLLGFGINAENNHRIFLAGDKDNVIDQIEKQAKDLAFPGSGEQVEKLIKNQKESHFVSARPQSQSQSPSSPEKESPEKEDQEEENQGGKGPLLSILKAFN
Experimental: as §4
as §6, with “undenatured conarachin” for “Ara h1 used in Example 2”, “(10, 30, 100, 300, and 1000 nmol/L) and the heat-denatured conarachin to predetermined concentrations (3.125, 6.25,” for “(6.25,”, “25,” for “25, 50,”, “50” for “100”, “conarachin” for “Ara h1”

[9] = molecular target: T2, Ara h1 (heat-denatured, purified from …); assay: SPR; 40 mM HEPES pH 7.5, 125 mM NaCl, 5 mM KCl, 1 mM MgCl2, 0.05% Tween 20; settings: tags: INDOOR biotechnologies NA-AH1-1
Experimental: as §1
Samples were prepared by adjusting commercially available peanut allergen Ara h1 (INDOOR biotechnologies, #NA-AH1-1, Blanched peanut, crushed [Runner cultivar]) to 50 nmol/L, 25 nmol/L, 12.5 nmol/L, and 6.25 nmol/L. The Ara h1, which is purified from parboiled peanuts, is a heat-denatured protein. The SPR analysis was carried out in the same manner as in Example 1, and the kinetic parameter was calculated from the results of the analysis.

conarachin (undenatured) [10] = molecular target: T3, conarachin (undenatured); assay: SPR; same SPR buffer; settings: tags: COSMO BIO CSB-CSB-NP003601PL
Experimental: as §4, §5

beta-conglycinin (heat-denatured, boiled 10 min), sequence (P0DO16 63-605, chain 1 of 3): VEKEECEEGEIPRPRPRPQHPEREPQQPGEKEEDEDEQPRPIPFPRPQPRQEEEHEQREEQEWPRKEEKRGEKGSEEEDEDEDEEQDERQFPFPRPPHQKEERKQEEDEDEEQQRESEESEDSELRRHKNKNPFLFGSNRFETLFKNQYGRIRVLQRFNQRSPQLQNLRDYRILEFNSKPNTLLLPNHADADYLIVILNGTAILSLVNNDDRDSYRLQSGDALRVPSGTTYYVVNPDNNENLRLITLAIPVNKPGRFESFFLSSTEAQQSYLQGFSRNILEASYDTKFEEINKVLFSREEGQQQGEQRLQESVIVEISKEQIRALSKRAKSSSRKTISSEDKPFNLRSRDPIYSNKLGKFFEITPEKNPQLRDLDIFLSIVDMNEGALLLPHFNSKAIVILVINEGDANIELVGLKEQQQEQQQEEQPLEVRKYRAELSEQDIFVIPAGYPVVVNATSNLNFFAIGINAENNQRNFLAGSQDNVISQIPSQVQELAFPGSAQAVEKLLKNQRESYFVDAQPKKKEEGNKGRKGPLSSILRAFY
beta-conglycinin (heat-denatured, boiled 10 min), sequence (P11827 63-621, chain 2 of 3): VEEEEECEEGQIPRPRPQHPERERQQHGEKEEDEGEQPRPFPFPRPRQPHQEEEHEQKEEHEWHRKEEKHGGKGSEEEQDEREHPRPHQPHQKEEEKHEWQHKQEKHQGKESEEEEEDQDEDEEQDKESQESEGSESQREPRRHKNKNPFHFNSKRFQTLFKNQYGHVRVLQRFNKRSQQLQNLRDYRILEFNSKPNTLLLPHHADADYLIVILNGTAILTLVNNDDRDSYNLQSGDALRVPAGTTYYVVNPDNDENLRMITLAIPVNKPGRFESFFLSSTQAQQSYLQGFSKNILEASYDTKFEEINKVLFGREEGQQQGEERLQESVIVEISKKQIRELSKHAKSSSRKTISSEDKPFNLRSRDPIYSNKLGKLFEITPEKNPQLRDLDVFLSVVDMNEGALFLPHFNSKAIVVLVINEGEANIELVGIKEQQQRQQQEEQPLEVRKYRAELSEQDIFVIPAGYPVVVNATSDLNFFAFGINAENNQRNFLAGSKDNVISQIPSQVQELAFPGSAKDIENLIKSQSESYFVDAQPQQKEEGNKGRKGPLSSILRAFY
beta-conglycinin (heat-denatured, boiled 10 min), sequence (P25974 24-439, chain 3 of 3): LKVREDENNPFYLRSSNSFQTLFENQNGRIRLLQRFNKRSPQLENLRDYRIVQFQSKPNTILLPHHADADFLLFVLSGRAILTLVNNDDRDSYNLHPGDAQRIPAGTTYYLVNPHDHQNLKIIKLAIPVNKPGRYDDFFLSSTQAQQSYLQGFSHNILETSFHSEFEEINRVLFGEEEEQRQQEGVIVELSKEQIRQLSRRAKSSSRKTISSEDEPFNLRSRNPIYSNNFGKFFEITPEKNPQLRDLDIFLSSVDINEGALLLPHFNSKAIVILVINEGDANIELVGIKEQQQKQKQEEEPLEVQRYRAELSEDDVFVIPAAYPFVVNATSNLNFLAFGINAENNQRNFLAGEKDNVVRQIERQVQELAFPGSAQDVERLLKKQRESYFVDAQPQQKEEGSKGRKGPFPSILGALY
T1 sequence (P0DO16 63-605, chain 1 of 3): as the sequence (P0DO16 63-605, chain 1 of 3) above
T1 sequence (P11827 63-621, chain 2 of 3): as the sequence (P11827 63-621, chain 2 of 3) above
T1 sequence (P25974 24-439, chain 3 of 3): as the sequence (P25974 24-439, chain 3 of 3) above

B1: CT25_C0 (ssDNA)
DNA: CTCTCTCTCTCTCTCTCTCTCTCTCAAAAAAAAAAAAAAAAAAAAAAAA
B1: no binding [1]; binds [2].

B2: CT25_C7 (ssDNA)
DNA: CTCTCTCTCTCCCCCCCTCTCTCTCAAAAAAAAAAAAAAAAAAAAAAAA
B2: no binding [1]; binds [2].

B3: P_NES01 (NAH1128R7Am2s19G) (ssDNA)
DNA: CCCGCCTGTATTCCTGTCCAAAAAAAAAAAAAAAAAAAAAAAA
For B3, the binding result [3] was “no binding”, the Kd (conarachin (undenatured) [4]) was 259 pM and the binding result [5] was “no binding”.

B4: P_NES02 (CONA161R8m1s31) (ssDNA)
DNA: GAATCCGCGGGGTAGCGGTGGCGAGCGATTCAAAAAAAAAAAAAAAAAAAAAAAA
B4: no binding [3]; binds [6]; no binding [5]. B4: binds (conarachin (undenatured) [7]); binds [8].

B5: P_NES04 (CONA171NNHR2R8m2s24) (ssDNA)
DNA: GTTTTCTAGGCCAATCTGATCAACAAAAAAAAAAAAAAAAAAAAAAAA
B5 was tested, and the binding result [3] was “no binding”, the Kd [9] was 141 pM and the binding result [5] was “no binding”.

B6: P_NES03 (CONA161R2R8m1s32) (ssDNA)
DNA: GTTCGTGGTGTGTTGTGTGTGATTCCAGGGACAAAAAAAAAAAAAAAAAAAAAAAA
B6 was tested, and the binding result [3] was “no binding”, the Kd [9] was 173 pM and the binding result [5] was “no binding”.

B7: PolydT20 (ssDNA)
DNA: TTTTTTTTTTTTTTTTTTTTAAAAAAAAAAAAAAAAAAAAAAAA
With B7 the binding result [3] was “no binding”, the Kd [9] was 190 pM and the binding result [5] was “no binding”. For the same binder, the Kd (conarachin (undenatured) [10]) was 263 pM.
